Experiment: yeast display, Sf9 membrane polyspecificity reagent, FACS + sequencing; frameworks hold sequencing errors
Summary of the method: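 A synthetic nanobody library was expressed on Saccharomyces cerevisiae BJ5465 by galactose induction for 36–48 hours. The library was stained for 1 hour at 4 °C with 10% biotinylated, detergent-solubilized Sf9 membrane reagent and enriched with streptavidin microbeads before FACS. Low and high (top ~1%) gates were set on anti-HA fluorescence for expression and streptavidin fluorescence for reagent binding, and each polyreactivity label reflects the gate of origin.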

Row | Sequence | polyreactivity (PSR sort gate)
1 | QVQLVESGGGLVQAGGSLRLSCAASGFTFSYYAMGWYRQAPGKERELVASISRSGNTYYADSVKGRFTISRDNAKNSVYLQMNSLKPEDTAVYYCAAAYKSYYLDGTYYYWGQGTQVTVSS | high polyreactivity
2 | QVQLVESGGGLVQAGGSLRLSCAASGLTFNVYAMGWYRPAPGKERELVASITKRGGSTYYADSVKGRFTISRDNAKNTVYLQMNSLKPEDTAVYYCAADGLTGSKYRATGYYWGQGTQVTVSS | high polyreactivity
3 | QVQLVESGGCLVQAGGSLRLSCAASGFIISSYVMGWYSQEPGKERELVAAITSGTSTYYADSVKGRFTFSRDNAKNTVYLQMNSLKPEDTAVYYCTADSYHTYYYWYDYWGQGTQVTVSS | low polyreactivity
4 | QVQLVESGGGLVQAGGSLRLSCAASGSTFAVNAMGWYRQAPGKERELVAVITSSGGRTYADSVKGRFTISRDNAKNTVYLQMNSLKPEDTAVYYCAAVQGKVRGGYYWGQGTQVTVSS | high polyreactivity
5 | QVQLVESGGGLVQAGGSLRLSCAASGRIFGYYAMGWYRQAPGKERELVAAIRSSGGSTYYADSVKGRFTISRDNAKNTVYLQMNSLKPEDTAVYYCNKGAAWRPFFGPYYNYEYWGQGTQVTVSS | high polyreactivity
6 | QVQLVESGGGLVQAGGSLRLSCAASGSIFEIYAMGWYRQAPGKERELVAAISWSGGRTYYADSVKGRFTISRDNAKNTVYLQMNSLKPEDTAVYYCNAGQWRYPGLYYYWGQVTQVTVSS | high polyreactivity
7 | QVQLVESGGGLVQAGGSLRLSCAASGSIFTLNAMGWYRQAPGKERELVAAIRWSGGSTYYADSVKGRFTISRDNAKNTVYLQMNSLKPEDTAVYYCAAKYPSDYYSRGFNYWGQGTQVTVSS | high polyreactivity
8 | QVQLVESGGGLVQAGGSLRLSCAASGSTFGLYAMGWYRQAPGKERELVAAITRGGVTDFADCVKGRFTFSRDNAKYTVYLQMNSLKPEDTAVYYCAAQYKRYHGLFGFWGQGTQVTVSS | high polyreactivity
9 | QVQLVESGGGLVQAGGSLRFSCAASGRTFFGYAMGWYRQAPGKERELVAAISRGGTTHYADSVKGRFTISRDNAKNTVYLQMNSLKPEDTAVYYCAADGYPYIWSGIEYDYWGQGTQVTVSS | high polyreactivity
10 | QVQLVESGGGLVQAGGSLRLSCAASGSIFWYNTMGWYRQAPGKERELVAAISSSGGTTYYADSVKGRFTISRDNAKNTVYLQMNSLKPEDTAVYYCAATVGDAYYEYDYWGQGTQVTVSS | low polyreactivity
11 | QDHLVESGGGLVQAGGSLRLSCAASGRIFGGYVMGRYRQAPGTERELVAAINGGGGSTYYADSVKGRFTISRDNAKNTVYLQMNSLKPEDTAVYYCMLVKRSQRKSTIDFDYWGQGTQVTVSS | high polyreactivity
12 | QVQLVESGGGLVQAGGSLRLSCAASGRIFLVNAMGWYRQAPGKERELVAAINGSGGSTYYADSVKGRFTISRDNAKNTVYLQMNSLKPEDTAVYYCAAKYVYSVGNYRYDYWGQGTQVTVSS | low polyreactivity
13 | QVQLVESGGGLVHAGGSLRLSCAASGYTFPLYAMGWYRQAPGKERELVADINIGGASTYYADSVKGRFTISRDNAKNTVYLQMNSLKPEDTAVYYCAKEYYDGYFPTFDYDYWGQGTQVTVSS | low polyreactivity
14 | QVQLVESRGGLVQAGGSLRLSSAASGLTLYGYTMGWYRQAPGKERELVATMTSGRDSTYYADSVKGRFTISGDNAKNTFYLEMHCLKPEDTAVYYCGAPYAGWRDGGDYWGQGTQVTVSS | low polyreactivity
15 | QVQLVESGGGLVQAGGSLRLSCAASGSTFYYYAMGWYRQAPGKERELVAAIDRDDRTNYADSVKGRFTISRDNAKNTVYLQMNSLKPEDTAVYNSAADSSERRLLDFDYWGQGTQVTVSS | low polyreactivity
16 | QVQLVESGGGLDQAGGSLRLSCAASGLTFKWYAMGWYRQAPGKERELVAAIRTSAGSTYYADSVKGRFTISRDNAKNTVYLQMNSLKPEDTAVYYCNAVGYVFRYVYQYDYWGQCTQVTVSS | low polyreactivity
17 | QVQLVESGGGLVQAGGSLRLSCAPSGRIIRKNAMGWSRQAPGKERELVAAITSVGSTYYADSVKGRFTISRDNAMNTVYLQMNSLKPEDTAVYYCNALQWSYNRGGYWGQGTQVTVSS | high polyreactivity
